{"source": "patent US20220306762A1", "key": {"[1]": {"target": "CD38 on Daudi target cells (UniProt P28907)", "assay": "cell-based or functional assay"}, "[2]": {"target": "His-tagged human CD38 (ACRO Biosystems CD8-H5224) (human) (UniProt P28907)", "assay": "SPR (second run), His-tagged CD38"}, "[3]": {"target": "His-tagged human CD38 (ACRO Biosystems cat #CD8-H5224) (human) (UniProt P28907)", "assay": "SPR (Carterra LSA), His-CD38 analyte"}, "[4]": {"target": "His-tagged human CD38 (ACRO Biosystems cat #CD8-H5224) (human) (UniProt P28907)", "assay": "SPR (Carterra LSA), antibody captured by anti-human Fc, His-tagged CD38 injected"}}, "data": [{"substance": "Isa Benchmark (antibody)", "values": [{"measurement": "ADCC EC50", "setting": "[1]", "value": 12.3, "unit": "ng/mL"}, {"measurement": "Max RLU", "setting": "[1]", "value": "3.16e+06", "unit": "RLU"}, {"measurement": "PBMC ADCC EC50", "setting": "[1]", "value": 0.0406, "unit": "ng/mL"}, {"measurement": "Kd", "setting": "[2]", "value": 5.8, "unit": "nM"}, {"measurement": "Kd", "setting": "[3]", "value": 2.69, "unit": "nM"}, {"measurement": "Kd", "setting": "[4]", "value": 5.8, "unit": "nM"}]}, {"substance": "Dara Benchmark (antibody)", "values": [{"measurement": "Kd", "setting": "[2]", "value": 37.1, "unit": "nM"}]}, {"substance": "Daratumumab (benchmark) (antibody)", "values": [{"measurement": "ADCC EC50", "setting": "[1]", "value": 68.2, "unit": "ng/mL"}, {"measurement": "Lowest Remaining Target %", "setting": "[1]", "value": 57, "unit": "%"}, {"measurement": "Max RLU", "setting": "[1]", "value": "2.47e+06", "unit": "RLU"}, {"measurement": "PBMC ADCC EC50", "setting": "[1]", "value": 0.0983, "unit": "ng/mL"}]}]}
